From patent US20110124841A1 (published 2011)
MPEG 20 kDa = 20 kDa MPEG from MPEG iodoacetamide

B1: PEGylated SG C-protein (residues 388 to 449 of SEQ ID NO:3) (other)
chain: GTLEHHHHHHGSEAVLNYNHRIVNIEAVSETIDVYDIEVPHTHNFALASGVFVHNSAGGC(MPEG 20 kDa)GP
B2: PEGylated SB C-protein (residues 388 to 453 of SEQ ID NO:1) (other)
chain: GTLEHHHHHHGSPEIEKLSQSDIYWDPIVSITETGVEEVFDLTVPGPRNFVANDIIVHNSGGGC(MPEG 20 kDa)GP

Assays:
[1] = target: SG N-protein (SEQ ID NO:4); experiment: cell-based or functional assay
[2] = target: SB N-protein (SEQ ID NO:2); experiment: cell-based or functional assay

Binder	efficiency of the trans-splicing, from SDS-PAGE protein band intensity; room temperature, molar ratio of C-protein to N-protein approximately 1 (Lane 9) [1] [%]	efficiency of the trans-splicing, from SDS-PAGE protein band intensity; room temperature, molar ratio of C-protein to N-protein approximately 5 (Lane 13) [1] [%]	efficiency of the trans-splicing reaction, from SDS-PAGE protein band intensity; molar ratio approximately 1 [2] [%]
B1	~50	~90	–
B2	–	–	~30
